From US20250171562A1 come the findings set out here.

B1: NIgG4B1A2(G4S)2 (Fc fusion)
chain 1: QVQLQESGGGLVQTGGSLRLSCAVHGRTFSNTGMGWFRQAPGNERQFVAIISPSGTSTYYADSVKGRFTISRDPAKNTVYLQMNSLKMDDTAVYYCAASYGSNWSTLRHQRRNEYDAWGQGTQVAVSGGGGSGGGGSGPPCPPCPAPEFLGGPSVFLFPPKPKDTLMISRTPEVTCVVVDVSQEDPEVQFNWYVDGVEVHNAKTKPREEQFNSTYRVVSVLTVLHQDWLNGKEYKCKVSNKGLPSSIEKTISKAKGQPREPQVYTLPPCQEEMTKNQVSLWCLVKGFYPSDIAVEWESNGQPENNYKTTPPVLDSDGSFFLYSRLTVDKSRWQEGNVFSCSVMHEALHNHYTQKSLSLSLGK
chain 2: EVQLLESGGGLVQPGGSLRLSCAASGFRFGNYDMAWVRQAPGKRYEWVSSIDTGGDITHYADSVKGRFTISRDNAKNTLYLQMNSLRPEDTAEYWCATDEEYALGPNEFDYYGQGTLVTVSGGGGSGGGGSGPPCPPCPAPEFLGGPSVFLFPPKPKDTLMISRTPEVTCVVVDVSQEDPEVQFNWYVDGVEVHNAKTKPREEQFNSTYRVVSVLTVLHQDWLNGKEYKCKVSNKGLPSSIEKTISKAKGQPREPQVCTLPPSQEEMTKNQVSLSCAVKGFYPSDIAVEWESNGQPENNYKTTPPVLDSDGSFFLVSRLTVDKSRWQEGNVFSCSVMHEALHNHYTQKSLSLSLGK
B2: CIgG4B1A2(G4S)1 (Fc fusion)
chain 1: GPPCPPCPAPEFLGGPSVFLFPPKPKDTLMISRTPEVTCVVVDVSQEDPEVQFNWYVDGVEVHNAKTKPREEQFNSTYRVVSVLTVLHQDWLNGKEYKCKVSNKGLPSSIEKTISKAKGQPREPQVYTLPPCQEEMTKNQVSLWCLVKGFYPSDIAVEWESNGQPENNYKTTPPVLDSDGSFFLYSRLTVDKSRWQEGNVFSCSVMHEALHNHYTQKSLSLSLGKGGGGSQVQLQESGGGLVQTGGSLRLSCAVHGRTFSNTGMGWFRQAPGNERQFVAIISPSGTSTYYADSVKGRFTISRDPAKNTVYLQMNSLKMDDTAVYYCAASYGSNWSTLRHQRRNEYDAWGQGTQVAVS
chain 2: GPPCPPCPAPEFLGGPSVFLFPPKPKDTLMISRTPEVTCVVVDVSQEDPEVQFNWYVDGVEVHNAKTKPREEQFNSTYRVVSVLTVLHQDWLNGKEYKCKVSNKGLPSSIEKTISKAKGQPREPQVCTLPPSQEEMTKNQVSLSCAVKGFYPSDIAVEWESNGQPENNYKTTPPVLDSDGSFFLVSRLTVDKSRWQEGNVFSCSVMHEALHNHYTQKSLSLSLGKGGGGSEVQLLESGGGLVQPGGSLRLSCAASGFRFGNYDMAWVRQAPGKRYEWVSSIDTGGDITHYADSVKGRFTISRDNAKNTLYLQMNSLRPEDTAEYWCATDEEYALGPNEFDYYGQGTLVTVS
B3: NIgG4B1A2(G4S)3 (Fc fusion)
chain 1: QVQLQESGGGLVQTGGSLRLSCAVHGRTFSNTGMGWFRQAPGNERQFVAIISPSGTSTYYADSVKGRFTISRDPAKNTVYLQMNSLKMDDTAVYYCAASYGSNWSTLRHQRRNEYDAWGQGTQVAVSGGGGSGGGGSGGGGSGPPCPPCPAPEFLGGPSVFLFPPKPKDTLMISRTPEVTCVVVDVSQEDPEVQFNWYVDGVEVHNAKTKPREEQFNSTYRVVSVLTVLHQDWLNGKEYKCKVSNKGLPSSIEKTISKAKGQPREPQVYTLPPCQEEMTKNQVSLWCLVKGFYPSDIAVEWESNGQPENNYKTTPPVLDSDGSFFLYSRLTVDKSRWQEGNVFSCSVMHEALHNHYTQKSLSLSLGK
chain 2: EVQLLESGGGLVQPGGSLRLSCAASGFRFGNYDMAWVRQAPGKRYEWVSSIDTGGDITHYADSVKGRFTISRDNAKNTLYLQMNSLRPEDTAEYWCATDEEYALGPNEFDYYGQGTLVTVSGGGGSGGGGSGGGGSGPPCPPCPAPEFLGGPSVFLFPPKPKDTLMISRTPEVTCVVVDVSQEDPEVQFNWYVDGVEVHNAKTKPREEQFNSTYRVVSVLTVLHQDWLNGKEYKCKVSNKGLPSSIEKTISKAKGQPREPQVCTLPPSQEEMTKNQVSLSCAVKGFYPSDIAVEWESNGQPENNYKTTPPVLDSDGSFFLVSRLTVDKSRWQEGNVFSCSVMHEALHNHYTQKSLSLSLGK
B4: NIgG4B1A2(G4S)1 (Fc fusion)
chain 1: QVQLQESGGGLVQTGGSLRLSCAVHGRTFSNTGMGWFRQAPGNERQFVAIISPSGTSTYYADSVKGRFTISRDPAKNTVYLQMNSLKMDDTAVYYCAASYGSNWSTLRHQRRNEYDAWGQGTQVAVSGGGGSGPPCPPCPAPEFLGGPSVFLFPPKPKDTLMISRTPEVTCVVVDVSQEDPEVQFNWYVDGVEVHNAKTKPREEQFNSTYRVVSVLTVLHQDWLNGKEYKCKVSNKGLPSSIEKTISKAKGQPREPQVYTLPPCQEEMTKNQVSLWCLVKGFYPSDIAVEWESNGQPENNYKTTPPVLDSDGSFFLYSRLTVDKSRWQEGNVFSCSVMHEALHNHYTQKSLSLSLGK
chain 2: EVQLLESGGGLVQPGGSLRLSCAASGFRFGNYDMAWVRQAPGKRYEWVSSIDTGGDITHYADSVKGRFTISRDNAKNTLYLQMNSLRPEDTAEYWCATDEEYALGPNEFDYYGQGTLVTVSGGGGSGPPCPPCPAPEFLGGPSVFLFPPKPKDTLMISRTPEVTCVVVDVSQEDPEVQFNWYVDGVEVHNAKTKPREEQFNSTYRVVSVLTVLHQDWLNGKEYKCKVSNKGLPSSIEKTISKAKGQPREPQVCTLPPSQEEMTKNQVSLSCAVKGFYPSDIAVEWESNGQPENNYKTTPPVLDSDGSFFLVSRLTVDKSRWQEGNVFSCSVMHEALHNHYTQKSLSLSLGK
B5: CIgG4B1A2(G4S)2 (Fc fusion)
chain 1: GPPCPPCPAPEFLGGPSVFLFPPKPKDTLMISRTPEVTCVVVDVSQEDPEVQFNWYVDGVEVHNAKTKPREEQFNSTYRVVSVLTVLHQDWLNGKEYKCKVSNKGLPSSIEKTISKAKGQPREPQVYTLPPCQEEMTKNQVSLWCLVKGFYPSDIAVEWESNGQPENNYKTTPPVLDSDGSFFLYSRLTVDKSRWQEGNVFSCSVMHEALHNHYTQKSLSLSLGKGGGGSGGGGSQVQLQESGGGLVQTGGSLRLSCAVHGRTFSNTGMGWFRQAPGNERQFVAIISPSGTSTYYADSVKGRFTISRDPAKNTVYLQMNSLKMDDTAVYYCAASYGSNWSTLRHQRRNEYDAWGQGTQVAVS
chain 2: GPPCPPCPAPEFLGGPSVFLFPPKPKDTLMISRTPEVTCVVVDVSQEDPEVQFNWYVDGVEVHNAKTKPREEQFNSTYRVVSVLTVLHQDWLNGKEYKCKVSNKGLPSSIEKTISKAKGQPREPQVCTLPPSQEEMTKNQVSLSCAVKGFYPSDIAVEWESNGQPENNYKTTPPVLDSDGSFFLVSRLTVDKSRWQEGNVFSCSVMHEALHNHYTQKSLSLSLGKGGGGSGGGGSEVQLLESGGGLVQPGGSLRLSCAASGFRFGNYDMAWVRQAPGKRYEWVSSIDTGGDITHYADSVKGRFTISRDNAKNTLYLQMNSLRPEDTAEYWCATDEEYALGPNEFDYYGQGTLVTVS
B6: CIgG4B1A2(RS) (Fc fusion)
chain 1: GPPCPPCPAPEFLGGPSVFLFPPKPKDTLMISRTPEVTCVVVDVSQEDPEVQFNWYVDGVEVHNAKTKPREEQFNSTYRVVSVLTVLHQDWLNGKEYKCKVSNKGLPSSIEKTISKAKGQPREPQVYTLPPCQEEMTKNQVSLWCLVKGFYPSDIAVEWESNGQPENNYKTTPPVLDSDGSFFLYSRLTVDKSRWQEGNVFSCSVMHEALHNHYTQKSLSLSLGKRSQVQLQESGGGLVQTGGSLRLSCAVHGRTFSNTGMGWFRQAPGNERQFVAIISPSGTSTYYADSVKGRFTISRDPAKNTVYLQMNSLKMDDTAVYYCAASYGSNWSTLRHQRRNEYDAWGQGTQVAVS
chain 2: GPPCPPCPAPEFLGGPSVFLFPPKPKDTLMISRTPEVTCVVVDVSQEDPEVQFNWYVDGVEVHNAKTKPREEQFNSTYRVVSVLTVLHQDWLNGKEYKCKVSNKGLPSSIEKTISKAKGQPREPQVCTLPPSQEEMTKNQVSLSCAVKGFYPSDIAVEWESNGQPENNYKTTPPVLDSDGSFFLVSRLTVDKSRWQEGNVFSCSVMHEALHNHYTQKSLSLSLGKRSEVQLLESGGGLVQPGGSLRLSCAASGFRFGNYDMAWVRQAPGKRYEWVSSIDTGGDITHYADSVKGRFTISRDNAKNTLYLQMNSLRPEDTAEYWCATDEEYALGPNEFDYYGQGTLVTVS
B7: NIgG4B1A2(RS) (Fc fusion)
chain 1: QVQLQESGGGLVQTGGSLRLSCAVHGRTFSNTGMGWFRQAPGNERQFVAIISPSGTSTYYADSVKGRFTISRDPAKNTVYLQMNSLKMDDTAVYYCAASYGSNWSTLRHQRRNEYDAWGQGTQVAVSRSGPPCPPCPAPEFLGGPSVFLFPPKPKDTLMISRTPEVTCVVVDVSQEDPEVQFNWYVDGVEVHNAKTKPREEQFNSTYRVVSVLTVLHQDWLNGKEYKCKVSNKGLPSSIEKTISKAKGQPREPQVYTLPPCQEEMTKNQVSLWCLVKGFYPSDIAVEWESNGQPENNYKTTPPVLDSDGSFFLYSRLTVDKSRWQEGNVFSCSVMHEALHNHYTQKSLSLSLGK
chain 2: EVQLLESGGGLVQPGGSLRLSCAASGFRFGNYDMAWVRQAPGKRYEWVSSIDTGGDITHYADSVKGRFTISRDNAKNTLYLQMNSLRPEDTAEYWCATDEEYALGPNEFDYYGQGTLVTVSRSGPPCPPCPAPEFLGGPSVFLFPPKPKDTLMISRTPEVTCVVVDVSQEDPEVQFNWYVDGVEVHNAKTKPREEQFNSTYRVVSVLTVLHQDWLNGKEYKCKVSNKGLPSSIEKTISKAKGQPREPQVCTLPPSQEEMTKNQVSLSCAVKGFYPSDIAVEWESNGQPENNYKTTPPVLDSDGSFFLVSRLTVDKSRWQEGNVFSCSVMHEALHNHYTQKSLSLSLGK
B8: NIgG4B3A1(G4S)3 (Fc fusion)
chain 1: DVQLQESGGGLVQAGGSLRLSCAASGFIFRLAGMSWVRQAPGKGFEWVSGITMDGSTTNYADSVKGRFTISRDNSKNRLYLQMNSLKPEDTAVYYCARGAKGGYNDPRGQGTQVTVSGGGGSGGGGSGGGGSGPPCPPCPAPEFLGGPSVFLFPPKPKDTLMISRTPEVTCVVVDVSQEDPEVQFNWYVDGVEVHNAKTKPREEQFNSTYRVVSVLTVLHQDWLNGKEYKCKVSNKGLPSSIEKTISKAKGQPREPQVYTLPPCQEEMTKNQVSLWCLVKGFYPSDIAVEWESNGQPENNYKTTPPVLDSDGSFFLYSRLTVDKSRWQEGNVFSCSVMHEALHNHYTQKSLSLSLGK
chain 2: EVQLLESGGGLVQPGGSLRLSCAASGFTFGNYDMAWVRQAPGKRPEWVSSIDTGGDITHYADSVKGRFTISRDNAKNTLYLQMNSLRPEDTAVYWCATDEEYALGPNEFDYYGQGTLVTVSSGGGGSGGGGSGGGGSGPPCPPCPAPEFLGGPSVFLFPPKPKDTLMISRTPEVTCVVVDVSQEDPEVQFNWYVDGVEVHNAKTKPREEQFNSTYRVVSVLTVLHQDWLNGKEYKCKVSNKGLPSSIEKTISKAKGQPREPQVCTLPPSQEEMTKNQVSLSCAVKGFYPSDIAVEWESNGQPENNYKTTPPVLDSDGSFFLVSRLTVDKSRWQEGNVFSCSVMHEALHNHYTQKSLSLSLGK

The target in this assay is mixture of three Der p 2 specific recombinant human IgE clones H10, H12, P4E (human) (UniProt P01854). Kind of assay: RBL-SX38 IgE displacement, FACS.
Chain of mixture of three Der p 2 specific recombinant human IgE clones H10, H12, P4E (human) (P01854 other isoform, or with tags, fused parts or gaps): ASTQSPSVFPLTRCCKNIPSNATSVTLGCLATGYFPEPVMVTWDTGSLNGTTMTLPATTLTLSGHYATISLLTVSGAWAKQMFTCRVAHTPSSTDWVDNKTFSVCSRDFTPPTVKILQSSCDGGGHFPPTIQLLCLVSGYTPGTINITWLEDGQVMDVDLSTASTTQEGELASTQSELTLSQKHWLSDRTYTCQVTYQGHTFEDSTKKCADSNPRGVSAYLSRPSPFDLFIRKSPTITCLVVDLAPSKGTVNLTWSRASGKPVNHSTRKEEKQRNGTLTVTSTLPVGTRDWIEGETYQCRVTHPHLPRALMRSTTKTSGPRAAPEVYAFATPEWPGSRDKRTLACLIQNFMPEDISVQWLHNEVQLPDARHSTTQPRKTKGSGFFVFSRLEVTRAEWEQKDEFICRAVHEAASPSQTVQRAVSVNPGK
As a reminder, the EC50 is the midpoint of the concentration-response curve. B1: the concentration for a half-maximal effect (EC50) came out at 0.4 nM and the Max effect/effect 1 µM stood at 100%.

In the case of B2, the EC50 is 8.1 nM and the Max effect/effect 1 µM is 100%.

For the molecule B3, the EC50 worked out at 0.5 nM and the Max effect/effect 1 µM came out at 100%.

With B4, the EC50 was 0.4 nM and the Max effect/effect 1 µM worked out at 100%.

As for B5, the EC50 was 6.1 nM and the Max effect/effect 1 µM was determined as 100%.

Take B6: the EC50 is 11.9 nM and the Max effect/effect 1 µM came to 99%.

Take B7: the EC50 stood at 0.6 nM and the Max effect/effect 1 µM worked out at 99%.

For B8, the Max effect/effect 1 µM was 93%.
